From patent US20240301071A1 (Alector, published 2024)

T1: CynoSIRPA (NP_001271679.1) (cynomolgus, UniProt A0A2K5VYQ9 31-507)
T1 sequence: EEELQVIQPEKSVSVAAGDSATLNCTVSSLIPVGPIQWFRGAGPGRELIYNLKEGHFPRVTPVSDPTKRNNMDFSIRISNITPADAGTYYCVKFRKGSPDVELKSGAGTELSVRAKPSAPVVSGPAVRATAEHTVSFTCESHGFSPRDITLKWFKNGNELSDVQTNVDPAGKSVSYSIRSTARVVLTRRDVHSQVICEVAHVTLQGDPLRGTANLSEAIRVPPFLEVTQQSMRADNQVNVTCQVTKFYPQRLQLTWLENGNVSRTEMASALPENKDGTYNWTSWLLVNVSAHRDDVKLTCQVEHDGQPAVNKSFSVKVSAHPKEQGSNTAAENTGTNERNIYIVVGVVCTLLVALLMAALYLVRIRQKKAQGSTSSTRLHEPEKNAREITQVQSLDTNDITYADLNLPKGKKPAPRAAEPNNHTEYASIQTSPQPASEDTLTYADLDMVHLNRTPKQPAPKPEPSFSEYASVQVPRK

T2: cynoSIRPA XPO15313153.1 (cynomolgus, UniProt A0A2K5VYQ9)
T2 construct: not tied one by one in the text; also called cynomolgus SIRPA; not shown: Fc or His tag
T2 sequence: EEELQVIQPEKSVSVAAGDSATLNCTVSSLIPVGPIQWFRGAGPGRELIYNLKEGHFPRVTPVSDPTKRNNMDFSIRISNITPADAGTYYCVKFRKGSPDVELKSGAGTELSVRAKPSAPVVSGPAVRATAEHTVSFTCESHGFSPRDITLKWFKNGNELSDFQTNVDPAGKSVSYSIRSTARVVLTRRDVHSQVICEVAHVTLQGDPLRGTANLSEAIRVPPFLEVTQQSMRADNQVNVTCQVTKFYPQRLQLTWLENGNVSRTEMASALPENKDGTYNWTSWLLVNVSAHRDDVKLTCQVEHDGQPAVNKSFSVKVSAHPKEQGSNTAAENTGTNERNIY

T3: rat SIRPA (rat, UniProt P97710 32-373, limits assumed)
T3 sequence (looked up): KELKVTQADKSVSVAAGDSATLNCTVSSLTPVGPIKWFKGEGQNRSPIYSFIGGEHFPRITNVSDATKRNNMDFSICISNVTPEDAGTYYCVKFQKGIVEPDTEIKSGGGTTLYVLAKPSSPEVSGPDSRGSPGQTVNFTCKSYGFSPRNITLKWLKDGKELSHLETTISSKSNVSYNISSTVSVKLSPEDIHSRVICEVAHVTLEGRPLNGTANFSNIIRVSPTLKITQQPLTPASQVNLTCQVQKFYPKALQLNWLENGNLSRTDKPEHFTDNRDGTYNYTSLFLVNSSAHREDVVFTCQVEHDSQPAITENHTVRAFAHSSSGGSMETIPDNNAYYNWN


Key:
[1] = target: T1, CynoSIRPA (NP_001271679.1); assay: ELISA, plate coated with SIRP protein
Description: (§1) In an ELISA assay, 96-well Immulon HBX plates were coated with His- or Fc-tagged SIRPA of a given species, as indicated, at 1 μg/mL in PBS overnight at 4C. Plates were blocked in 5% (w/v) bovine serum albumin in PBS for 1 hour, after which they were washed 3 times with PBS/0.05% Tween 20 (PBS/T). Anti-SIRPA antibodies were added to the plate in a dilution series and were incubated at room temperature for 2 hours, after which the unbound antibody was removed by washing with PBS/T. Horseradish peroxidase-conjugated anti-mouse IgG or anti-human kappa light chain (Jackson Immunoresearch) was then added to the wells and incubated for 30 minutes. Unbound antibody was removed by washing with PBS/T, after which bound antibody was detected using tetramethylbenzidine (TMB). The reaction was stopped with 2N H₂SO₄, after which the plates were read at A450.

huSIRPA v.2 NP542970.1 = target: T4, huSIRPA v.2 NP542970.1 (human, UniProt P78324 31-373, limits assumed); assay: ELISA, plate coated with tagged SIRPA at 1 ug/mL
T4 construct: see m48; also called human SIRPA v2; human SIRPA-Fc (v2)
Description: as §1

cynoSIRPA XPO15313153.1 = target: T2, cynoSIRPA XPO15313153.1; assay: ELISA, plate coated with tagged SIRPA at 1 ug/mL
Description: as §1

rat SIRPA = target: T3, rat SIRPA; assay: ELISA, plate coated with tagged SIRPA at 1 ug/mL
Description: as §1

[2] = target: T5, human SIRPA v1 on BWZ cells (BWZ-huSIRPA) (human, UniProt P78324 31-504); assay: flow cytometry titration on BWZ-huSIRPA cells, 4 C
T5 construct: also called BWZ cells overexpressing human SIRPA; BWZ-huSIRPA v1 cells
Description: After addition of fluorescently labeled secondary antibody and brief washing steps, MFI values as a function of titrated antibody concentration was recorded via FACS analysis. […] Receptor bound antibodies were detected by staining cells with anti-human IgG PE secondary antibody. Curves were fit using nonlinear regression analysis with Graphpad Prism 6 software.

[3] = target: T5, human SIRPA v1 on BWZ cells …; assay: flow cytometry titration on BWZ cells overexpressing huSIRPA, 4 C
Description: Receptor bound antibodies were detected by staining cells with anti-mouse IgG Fc APC or anti-human IgG PE secondary antibody. Serial dilutions of the monoclonal antibodies were added to 10⁵ BWZ cells overexpressing huSIRPA (BWZ-huSIRPA) and allowed to achieve binding equilibrium at 4° C. After addition of fluorescently labeled secondary antibody and brief washing steps, mean fluorescent intensity (MFI) values as a function of titrated antibody concentration was recorded via FACS analysis. Curves were fit using nonlinear regression analysis with Graphpad Prism 6 software.

[4] = target: T5, human SIRPA v1 on BWZ cells …; assay: flow cytometry competition on BWZ-huSIRPA v1 cells, competitor: fluorophore-labelled reference m3F9
Excerpt: IC50 values provide another comparison of relative affinity.

[5] = target: T6, histidine-tagged human SIRPA (Sino Biological) (human, UniProt P78324 31-370); assay: BLI (Octet RED96), antibody captured on anti-mouse IgG Fc sensor, His-tagged SIRPA in solution, 1:1 model
T6 construct: bought, soluble; also called histidine-tagged huSIRPA isoform 1; soluble SIRPA antigen; not shown: histidine tag
Description: (§2) Affinity measurements for the anti-SIRPA antibodies were performed as follows. Bio-layer interferometry (BLI) data were collected on a Pall ForteBio Octet RED96 instrument. Data analysis was performed using ForteBio Data Analysis Software, version 9.0. Standard kinetic buffer (PBS, 0.100 BSA, 0.02% Tween-20, pH 7.2) was used for the assay and for preparing reagents. […] Varying concentrations (0-200 nM) of histidine-tagged human SIRPA (Sino Biological, Beijing, China) were then bound to the captured anti-SIRPA surface (300 s association time, 600 s dissociation time). The resulting BLI signal was obtained as the difference in response from the reference (2.5 μg/mL IgG+0 nM SIRPA) sensor. […] Multi-concentration kinetic analysis was performed using a 1:1 interaction model to extract association and dissociation rate constants (ka and kd, respectively) for each antibody. Binding affinity constants (KD) were calculated from the ratio kd/ka.
(§3) Best-fit traces from the resulting sensorgrams were analyzed to calculate association rate, dissociation rate, and affinity values.

[6] = target: T6, histidine-tagged human SIRPA (Sino …); assay: BLI (Octet RED96), antibody captured on anti-human IgG Fc sensor, His-tagged SIRPA in solution, 1:1 model
Description: as §2, §3

[7] = target: T7, human SIRPA on human macrophages (primary monocyte-derived macrophages; U937 line) (human, UniProt P78324 31-504); assay: cell-based or functional assay
[8] = target: T7, human SIRPA on human macrophages …; assay: cell-based or functional assay; remark: listed apart in the source

T5 sequence (P78324 31-504): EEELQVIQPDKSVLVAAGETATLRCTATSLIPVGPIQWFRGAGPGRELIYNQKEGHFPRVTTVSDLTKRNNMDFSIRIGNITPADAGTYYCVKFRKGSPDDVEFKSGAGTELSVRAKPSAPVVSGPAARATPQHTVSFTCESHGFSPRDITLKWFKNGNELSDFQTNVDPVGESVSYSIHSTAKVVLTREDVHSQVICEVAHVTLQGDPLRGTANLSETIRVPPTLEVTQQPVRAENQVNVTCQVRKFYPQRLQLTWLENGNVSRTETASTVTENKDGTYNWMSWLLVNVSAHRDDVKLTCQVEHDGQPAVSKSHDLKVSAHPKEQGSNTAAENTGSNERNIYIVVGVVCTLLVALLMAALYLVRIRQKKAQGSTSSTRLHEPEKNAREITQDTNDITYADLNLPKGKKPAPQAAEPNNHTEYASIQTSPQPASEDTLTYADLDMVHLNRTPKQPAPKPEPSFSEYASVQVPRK
T7 sequence (P78324 31-370): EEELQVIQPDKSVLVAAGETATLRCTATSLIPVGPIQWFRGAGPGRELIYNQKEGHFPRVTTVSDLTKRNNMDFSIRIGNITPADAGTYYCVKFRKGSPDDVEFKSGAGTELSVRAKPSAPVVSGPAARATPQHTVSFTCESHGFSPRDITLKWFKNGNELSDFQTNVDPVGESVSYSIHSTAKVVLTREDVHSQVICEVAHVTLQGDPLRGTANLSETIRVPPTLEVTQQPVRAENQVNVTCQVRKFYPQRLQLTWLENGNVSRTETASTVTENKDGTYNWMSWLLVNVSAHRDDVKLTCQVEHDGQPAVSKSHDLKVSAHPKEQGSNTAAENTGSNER
T6 sequence (P78324 31-370 limits assumed): as the sequence (P78324 31-370) above
T4 sequence (P78324 31-373 limits assumed): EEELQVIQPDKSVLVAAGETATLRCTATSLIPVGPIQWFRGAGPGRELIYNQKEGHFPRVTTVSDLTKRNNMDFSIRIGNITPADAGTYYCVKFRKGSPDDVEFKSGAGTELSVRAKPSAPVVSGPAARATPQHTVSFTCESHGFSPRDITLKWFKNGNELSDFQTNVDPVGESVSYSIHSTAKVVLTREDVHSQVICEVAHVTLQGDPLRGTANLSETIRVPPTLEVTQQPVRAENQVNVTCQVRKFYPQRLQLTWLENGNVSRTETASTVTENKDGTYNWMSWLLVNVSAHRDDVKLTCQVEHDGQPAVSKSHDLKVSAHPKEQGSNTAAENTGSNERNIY

EC50 [1] | EC50 [3] | IC50 [4] | Kd [6] | koff [6] | kon [6] | Binder | other results
0.658 nM | 2.1 nM | 11.5 nM |  |  |  | mouse anti-SIRPA antibody m3F9 (antibody, mouse IgG1, V domains shown, hybridoma-derived murine IgG1; also called Parental m3F9 IgG1; 3F9 mIgG1) VH: EVKLVESGGGLVKPGGSLKLSCAASGFTFSSYAMSWVRQTPEKRLEWVATISDYGGSYTYYPDSVKGRFTISRDNAKYTLYLQMSSLRSEDTALYYCARPPYDDYYGGFAYWGQGTLVTVSA VL: DIVLTQSPASLAVSLGQRATISCRASKSVSSSGYSYMHWYQQKPGQPPKLLIYLASNLESGVPARFSGSGSGTDFTLNIHPVEEEDAATYYCQHNRELPCTFGGGTKLEIK | EC50 (huSIRPA v.2 NP542970.1): 0.695 nM; EC50 (cynoSIRPA XPO15313153.1): 1.09 nM; binding result (rat SIRPA): no binding; EC50 [2]: 0.72 nM; Kd [5]: 18 nM; koff [5]: 0.001 s⁻¹; kon [5]: 50800 M⁻¹ s⁻¹
7.44 nM |  |  |  |  |  | anti-SIRPA antibody 9C2 (antibody, V domains shown, described in PCT/US2017/65366; also called mAb 9C2) VH: EFQLQQSGAELVKPGASVKISCKASGYSLTGYNMNWVKQSRGKSLEWIGNINPHYGSSTYNQNFKDKATLTVDKSSSAAYMQFNSLTSEDSAVYYCAREGYDGVFDYWGQGTTLTVSS VL: QIVLSQSPAILSASPGEKVTMTCRASSSVSYMHWYQQKPGSSPKPWIYVTSNLASGVPTRFSGSGSGTSYSLTISRVEAEDAATYYCQQWSSNPRTFGGGTKLEIK | 
 | 0.968 nM | 2.19 nM | 20 nM | 0.0022 s⁻¹ | 110000 M⁻¹ s⁻¹ | mAb 14.70.2 (antibody, human IgG4, V domains shown, also called h3F9 H1/L2; h3F9 IgG4) VH: EVQLLESGGGLVQPGGSLRLSCAASGFTFSSYAMSWVRQAPGKGLEWVSTISDYGGSYTYYADSVKGRFTISRDNSKNTLYLQMNSLRAEDTAVYYCAKPPYDDYYGGFAYWGQGTLVTVSS VL: DIQLTQSPSSLSASVGDRVTITCRASKSVSSSGYSYMHWYQQKPGKAPKLLIYLASNLESGVPSRFSGSGSGTDFTLTISSVQPEDFATYYCQHNRELPCTFGQGTKLEIK | 
 | 1.61 nM | 4.61 nM | 11 nM | 0.00094 s⁻¹ | 86000 M⁻¹ s⁻¹ | mAb 14.70.4 (antibody, human IgG4, V domains shown, also called h3F9 H2/L1; h3F9 IgG4) VH: EVQLLESGGGLVQPGGSLRLSCAASGFTFSSYAMSWVRQAPGKGLEWVATISDYGGSYTYYADSVKGRFTISRDNSKNTLYLQMNSLRAEDTAVYYCARPPYDDYYGGFAYWGQGTLVTVSS VL: DIQMTQSPSSLSASVGDRVTITCRASKSVSSSGYSYMHWYQQKPGKAPKLLIYLASNLESGVPSRFSGSGSGTDFTLTISSLQPEDFATYYCQHNRELPCTFGQGTKLEIK | 
 |  |  |  |  |  | 3F9-22-huIgG1 PS (antibody) heavy: not shown light: DIQLTQSPSSLSASVGDRVTITCRASKSVSSGGYSYMHWYQQKPGKAPKLLIYLASNLESGVPSRFSGSGSGTDFTLTISSVQPEDFATYYCQHNRELPVTFGQGTKLEIKRTVAAPSVFIFPPSDEQLKSGTASVVCLLNNFYPREAKVQWKVDNALQSGNSQESVTEQDSKDSTYSLSSTLTLSKADYEKHKVYACEVTHQGLSSPVTKSFNRGEC | IC50 (nM), SIRPA downregulation on human monocyte-derived macrophages [7]: 0.047 nM; Max % DR, SIRPA, human monocyte-derived macrophages [7]: 73.8%; EC50 (nM), phagocytosis of A375 cells by primary human macrophages [8]: 0.114 nM; Max, fold increase in phagocytosis over baseline activity [8]: 2.07 fold
